Source: the supplement of paper PMC7125110
± gives the standard error. Variants at the floor of the assay were thinned out.

B1: glmS ribozyme (parent)
chain: AUAAAAGCGCCAGAACUACAGAAAUGUAGUUGACGAGGAGGAGGUUUAUCGAAUUUUCGGCGGAUGCCUCCAAA

Assays:
Conditions in all cases: with glucosamine-6-phosphate
[1] = variants of: B1; test: self-cleavage kobs at 40 uM GlcN6P; higher = faster cleavage; RNA array
Summary of the method: (§1)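 Sequenced MiSeq chips were the platform: E. coli RNA polymerase transcribed barcoded ribozyme variants on them in situ, and a hybridised Cy3 probe tracked these at 37 °C. After glucosamine-6-phosphate (40 μM to 10 mM) in HEPES/KCl/Mg(OAc)2 buffer was flowed in, tiles were imaged over ~14 h. Signals normalised to baseline and to non-cleaving reference variants were reduced to per-tile medians and fit to one- or two-exponential decays to obtain kobs. kcat and KM were derived through weighted Michaelis–Menten fits across concentrations.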

[2] = variants of: B1; test: self-cleavage kobs at 10000 uM GlcN6P; higher = faster cleavage; RNA array
Summary of the method: as §1

[3] = variants of: B1; test: self-cleavage kobs at 160 uM GlcN6P; higher = faster cleavage; RNA array
Summary of the method: as §1

[4] = variants of: B1; test: self-cleavage kobs at 640 uM GlcN6P; higher = faster cleavage; RNA array
Summary of the method: as §1

[5] = variants of: B1; test: self-cleavage kobs at 2500 uM GlcN6P; higher = faster cleavage; RNA array
Summary of the method: as §1

Variant	self-cleavage kobs at 40 uM GlcN6P [1]	self-cleavage kobs at 10000 uM GlcN6P [2]	self-cleavage kobs at 160 uM GlcN6P [3]	self-cleavage kobs at 640 uM GlcN6P [4]	self-cleavage kobs at 2500 uM GlcN6P [5]
C8A G40U C61U U69G	< 1e-05 s⁻¹	< 1e-05 s⁻¹	–	–	–
G44A C58A C70U	< 1e-05 s⁻¹	–	< 1e-05 s⁻¹	< 1e-05 s⁻¹	–
A14G G29C G40A C58U	< 1e-05 s⁻¹	–	–	< 1e-05 s⁻¹	–
A42C U47G	< 1e-05 s⁻¹	–	–	–	< 1e-05 s⁻¹
U31G U54G	0.000298 ± 5.4e-05 s⁻¹	0.0119 ± 0.0031 s⁻¹	0.000493 ± 8.5e-05 s⁻¹	0.00263 ± 0.00063 s⁻¹	0.00445 ± 0.00094 s⁻¹
A14U G51A	< 1e-05 s⁻¹	< 1e-05 s⁻¹	–	–	–
C8U C50G C58G C71U	0.000808 ± 0.00019 s⁻¹	0.000113 ± 2.1e-05 s⁻¹	–	–	–
A42U G51U	< 1e-05 s⁻¹	< 1e-05 s⁻¹	< 1e-05 s⁻¹	< 1e-05 s⁻¹	–
G32U U49G A53C	< 1e-05 s⁻¹	–	–	–	–
C8U C10A	< 1e-05 s⁻¹	< 1e-05 s⁻¹	< 1e-05 s⁻¹	< 1e-05 s⁻¹	< 1e-05 s⁻¹
C11G A36G G40C	< 1e-05 s⁻¹	< 1e-05 s⁻¹	< 1e-05 s⁻¹	< 1e-05 s⁻¹	< 1e-05 s⁻¹
U31G A53U C58G G60A	< 1e-05 s⁻¹	< 1e-05 s⁻¹	–	–	–
A52C G60U	< 1e-05 s⁻¹	< 1e-05 s⁻¹	–	–	–
U31G A42G	0.00033 ± 8.8e-05 s⁻¹	0.0263 ± 0.0086 s⁻¹	–	0.00343 ± 0.0011 s⁻¹	0.00724 ± 0.0018 s⁻¹
G40U U54G	0.000133 ± 1.9e-05 s⁻¹	0.00364 ± 0.00066 s⁻¹	–	0.00124 ± 0.00029 s⁻¹	0.00192 ± 0.00049 s⁻¹
A53G U54C	0.000508 ± 7.8e-05 s⁻¹	0.0169 ± 0.0033 s⁻¹	0.000991 ± 0.00024 s⁻¹	–	–
U49C C70U	< 1e-05 s⁻¹	< 1e-05 s⁻¹	–	< 1e-05 s⁻¹	–
A14U U69C	0.000126 ± 2.3e-05 s⁻¹	0.00132 ± 0.00026 s⁻¹	0.000147 ± 2.2e-05 s⁻¹	0.000362 ± 4.8e-05 s⁻¹	0.000501 ± 0.00015 s⁻¹
A6G C8G C10G A52U G60A	< 1e-05 s⁻¹	–	–	–	–
A12U G29A	0.00084 ± 0.00025 s⁻¹	0.041 ± 0.012 s⁻¹	0.000905 ± 0.0002 s⁻¹	0.00253 ± 0.00054 s⁻¹	0.00409 ± 0.0011 s⁻¹
A15U A42C C68G	< 1e-05 s⁻¹	–	–	–	–
A39U G51U	< 1e-05 s⁻¹	< 1e-05 s⁻¹	–	< 1e-05 s⁻¹	–
C11G A36G	< 1e-05 s⁻¹	< 1e-05 s⁻¹	< 1e-05 s⁻¹	< 1e-05 s⁻¹	< 1e-05 s⁻¹
G38U G59A C68G	6.06e-05 ± 2.6e-05 s⁻¹	4.84e-05 ± 1.9e-05 s⁻¹	–	–	–

Variant	self-cleavage kobs at 40 uM GlcN6P [1]	self-cleavage kobs at 10000 uM GlcN6P [2]	self-cleavage kobs at 160 uM GlcN6P [3]	self-cleavage kobs at 640 uM GlcN6P [4]	self-cleavage kobs at 2500 uM GlcN6P [5]
C70U	0.00149 ± 4.2e-05 s⁻¹	0.0554 ± 0.0035 s⁻¹	0.00417 ± 0.00021 s⁻¹	0.0095 ± 0.00039 s⁻¹	0.0161 ± 0.0012 s⁻¹
G13C G38A C58U	< 1e-05 s⁻¹	–	–	–	–
A42G A48U G62U C71U	< 1e-05 s⁻¹	< 1e-05 s⁻¹	–	< 1e-05 s⁻¹	< 1e-05 s⁻¹
G29C U31C G37A C67A	< 1e-05 s⁻¹	< 1e-05 s⁻¹	–	–	< 1e-05 s⁻¹
C16A C34G	< 1e-05 s⁻¹	–	–	< 1e-05 s⁻¹	–
G13A A33G	< 1e-05 s⁻¹	–	–	< 1e-05 s⁻¹	–
A14G C50G C71U	0.000639 ± 0.00021 s⁻¹	4.82e-05 ± 2e-05 s⁻¹	0.000245 ± 7.3e-05 s⁻¹	0.00131 ± 0.00027 s⁻¹	–
C11G A14C	< 1e-05 s⁻¹	–	< 1e-05 s⁻¹	–	–
C11A A48G	< 1e-05 s⁻¹	–	< 1e-05 s⁻¹	< 1e-05 s⁻¹	< 1e-05 s⁻¹
G37C U54C C61U C67G	< 1e-05 s⁻¹	< 1e-05 s⁻¹	–	–	–
A53G G66U C67A	7.95e-05 ± 1.9e-05 s⁻¹	0.00186 ± 0.00059 s⁻¹	–	–	–
G44C U55G C70U	< 1e-05 s⁻¹	–	–	< 1e-05 s⁻¹	–
G7A C58A C67G	5.23e-05 ± 2.2e-05 s⁻¹	–	–	–	–
G44U U45C	< 1e-05 s⁻¹	–	–	–	–
U46G C58U	< 1e-05 s⁻¹	–	–	–	–
G7A G13A C68U	< 1e-05 s⁻¹	–	–	–	–
A6G G51U U65A	< 1e-05 s⁻¹	< 1e-05 s⁻¹	–	–	–
A12U A14U G32U	< 1e-05 s⁻¹	8.48e-05 ± 2e-05 s⁻¹	–	–	–
C11G G35C	< 1e-05 s⁻¹	< 1e-05 s⁻¹	< 1e-05 s⁻¹	< 1e-05 s⁻¹	< 1e-05 s⁻¹
C16U G32C G38C	< 1e-05 s⁻¹	–	–	–	–
G40C C61G	< 1e-05 s⁻¹	< 1e-05 s⁻¹	< 1e-05 s⁻¹	< 1e-05 s⁻¹	< 1e-05 s⁻¹
C11A A42G U56A	< 1e-05 s⁻¹	7.2e-05 ± 1.5e-05 s⁻¹	–	–	2.82e-05 ± 1.3e-05 s⁻¹
A6C G29C A36U C61U	< 1e-05 s⁻¹	< 1e-05 s⁻¹	–	–	< 1e-05 s⁻¹
